Results on one substance are retold here after patent US20260001935.

This series relates to aflibercept.
Chain of aflibercept (chain, as listed by the source): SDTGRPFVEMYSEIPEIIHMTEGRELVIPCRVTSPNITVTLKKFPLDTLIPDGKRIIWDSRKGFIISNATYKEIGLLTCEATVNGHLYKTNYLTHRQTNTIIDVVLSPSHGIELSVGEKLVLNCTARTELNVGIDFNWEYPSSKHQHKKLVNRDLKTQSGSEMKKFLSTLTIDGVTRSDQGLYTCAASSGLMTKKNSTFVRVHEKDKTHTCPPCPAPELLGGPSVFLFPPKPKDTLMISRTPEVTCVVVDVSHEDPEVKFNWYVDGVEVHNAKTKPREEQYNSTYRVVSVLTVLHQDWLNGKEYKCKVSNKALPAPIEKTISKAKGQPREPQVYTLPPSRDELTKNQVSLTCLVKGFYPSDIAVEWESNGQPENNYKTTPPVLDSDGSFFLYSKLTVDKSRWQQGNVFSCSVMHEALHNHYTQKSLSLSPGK

Chain of cathepsin D (Chinese hamster ovary host cell protein; recombinant CHO Cathepsin D with mmh tag) (chain, as listed by the source): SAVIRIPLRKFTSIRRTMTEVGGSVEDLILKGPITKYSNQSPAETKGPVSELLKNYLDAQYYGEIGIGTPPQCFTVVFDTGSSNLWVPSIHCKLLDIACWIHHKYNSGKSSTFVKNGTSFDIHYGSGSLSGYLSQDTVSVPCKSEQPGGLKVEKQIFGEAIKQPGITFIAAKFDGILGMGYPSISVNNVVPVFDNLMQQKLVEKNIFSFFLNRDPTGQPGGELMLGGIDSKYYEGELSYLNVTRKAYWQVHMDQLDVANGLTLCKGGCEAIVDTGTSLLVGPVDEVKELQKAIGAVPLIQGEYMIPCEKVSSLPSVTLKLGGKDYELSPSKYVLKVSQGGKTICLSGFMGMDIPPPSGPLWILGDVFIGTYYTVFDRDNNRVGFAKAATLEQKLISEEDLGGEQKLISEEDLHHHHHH

Turning to “cathepsin D (Chinese hamster ovary host cell protein; recombinant CHO Cathepsin D with mmh tag)”, the “NR-1 band formation, and Y/L cleavage” value is “the results demonstrated a correlation between spiked-in cathepsin D and NR-1 band formation, and Y/L cleavage”.
